The record followed here is paper PMC4150770.

Assay [1] deals with 43S·mRNA preinitiation complex assembled with eIF5-M18V (yeast) (UniProt P32911). The assay can be described thus: fluorescence polarisation; dissociation kinetics by fluorescence anisotropy, 43S·mRNA(AUG) complexes: 15 nM eIF1A-Fl, 1 μM eIF1, 1 μM eIF5 variant, 120 nM 40S, 10 μM mRNA(AUG), 300 nM eIF2, 150 nM Met-tRNAi, 1 mM GDPNP·Mg2+; chase with 15 μM unlabeled eIF1A; 30 mM HEPES pH 7.4, 100 mM potassium acetate, 3 mM Mg(OAc)2, 2 mM DTT; double exponential fit (k1 fast phase, open state; k2 slow phase, closed state).

Assay [2] addresses 43S·mRNA preinitiation complex assembled with eIF5-G31R,M18V (yeast) (UniProt P32911). Described as above.
Assay [3] has as its target 43S·mRNA preinitiation complex assembled with eIF5-G31R (yeast) (UniProt P32911). The description is as above.
The target of assay [4] is 43S·mRNA preinitiation complex assembled with WT eIF5 (40S subunits, eIF1, eIF5, eIF2·GDPNP·Met-tRNAi ternary complex, model mRNA) (yeast) (UniProt P32911). The description is as above.
Assay [5] deals with 43S·mRNA preinitiation complex assembled with eIF5-G31R,G62S (yeast) (UniProt P32911). Described as above.
Assay [6] deals with 43S·mRNA preinitiation complex assembled with eIF5-G62S (yeast) (UniProt P32911). Described as above.
The target in assay [7] is 43S·mRNA preinitiation complex assembled with eIF5-M18V (yeast) (UniProt P32911). The assay can be described thus: fluorescence polarisation; dissociation kinetics by fluorescence anisotropy, 43S·mRNA(UUG) complexes: 15 nM eIF1A-Fl, 1 μM eIF1, 1 μM eIF5 variant, 120 nM 40S, 10 μM mRNA(UUG), 300 nM eIF2, 150 nM Met-tRNAi, 1 mM GDPNP·Mg2+; chase with 15 μM unlabeled eIF1A; 30 mM HEPES pH 7.4, 100 mM potassium acetate, 3 mM Mg(OAc)2, 2 mM DTT; double exponential fit (k1 fast phase, open state; k2 slow phase, closed state).

Assay [8] deals with 43S·mRNA preinitiation complex assembled with eIF5-G31R,M18V (yeast) (UniProt P32911). Described as above.
Assay [9] addresses 43S·mRNA preinitiation complex assembled with eIF5-G31R (yeast) (UniProt P32911). The assay is described as above.
In assay [10] the target is 43S·mRNA preinitiation complex assembled with WT eIF5 (40S subunits, eIF1, eIF5, eIF2·GDPNP·Met-tRNAi ternary complex, model mRNA) (yeast) (UniProt P32911). The description is as above.
Assay [11] deals with 43S·mRNA preinitiation complex assembled with eIF5-G31R,G62S (yeast) (UniProt P32911). Described as above.
In assay [12] the target is 43S·mRNA preinitiation complex assembled with eIF5-G62S (yeast) (UniProt P32911). The description is as above.

Turning to “eIF1A labeled at its C-terminus with fluorescein (from UniProt P38912 1-153) (natural protein)”, the k1 (dissociation rate constant, fast phase, open state) in assay [1] turned out to be 0.003 s⁻¹; in assay [2] it was 0.025 s⁻¹; in [3], 0.016 s⁻¹; in [4] it was 0.007 s⁻¹; in assay [5], 0.018 s⁻¹; in assay [6], 0.018 s⁻¹. Besides, the k1 (dissociation rate constant, fast phase, open state) in [7] was found to be 0.011 s⁻¹; in assay [8], 0.018 s⁻¹; in assay [9], 0.008 s⁻¹; in assay [10] it was 0.011 s⁻¹; in [11], 0.026 s⁻¹; in [12] it was 0.025 s⁻¹. The k2 (dissociation rate constant, slow phase, closed state) in assay [1] came out at 0.0003 s⁻¹; in assay [2], 0.002 s⁻¹; in [3], 0.005 s⁻¹; in [4], 0.0004 s⁻¹; in [5], 0.003 s⁻¹; in assay [6] it was 0.003 s⁻¹. For the same substance, the k2 (dissociation rate constant, slow phase, closed state) in assay [7] came to 0.0012 s⁻¹; in assay [8] it was 0.0003 s⁻¹; in assay [9], 0.0005 s⁻¹; in assay [10], 0.0011 s⁻¹; in [11], 0.004 s⁻¹; in assay [12], 0.002 s⁻¹.
